The assay addresses SERCA2a wild type (WT), expressed from a plasmid in HEK293 cells. The experiment in a line: cell-based or functional assay.

In the case of “flag-tagged SUMO1 (from UniProt P63165 2-97)”, the EC50 (Ca2+) of ATPase activity of WT SERCA2a with co-expression of SUMO1 turned out to be 110 nM.

The values are drawn from US20170014494A1.
